According to paper doi:10.64898/2025.12.17.694949, “Chiral inversion mutagenesis identifies geometrically constrained residues within self-associating low-complexity domains” (bioRxiv, 2025):

T1: wild-type glutathione S-transferase (GST)-EMD LCD fusion protein
T1 sequence (P50402 whole entry, species assumed, looked up): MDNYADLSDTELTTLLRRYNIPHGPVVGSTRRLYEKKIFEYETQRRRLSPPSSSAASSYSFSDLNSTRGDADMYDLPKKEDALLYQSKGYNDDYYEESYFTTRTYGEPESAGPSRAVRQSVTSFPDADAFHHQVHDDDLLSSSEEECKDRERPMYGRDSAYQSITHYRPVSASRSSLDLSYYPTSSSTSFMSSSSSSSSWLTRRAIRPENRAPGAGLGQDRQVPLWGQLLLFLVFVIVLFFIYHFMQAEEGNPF

B1: HA-tagged semi-synthetic EMD LCD 3xD_(191-195) (domain or fragment)
chain: RRLSPPSSSAASSYSFSDLNSTRGDADMYDLPKKEDALLYQSKGYNDDYYEESYFTTRTYGEPESAGPSRAVRQSVTSFPDADAFHHQVHDDDLLSSSEEECKDRERPMYGRDSAYQSITHYRPVSASRSSLDLSYYPTSSSTCFMSSSSSSSSWLTRRAIRPENRAPGAGLGQER
modifications: three D-amino acids at alternating positions within 191-195
B2: HA-tagged semi-synthetic EMD LCD 3xD_(195-199) (domain or fragment)
chain: RRLSPPSSSAASSYSFSDLNSTRGDADMYDLPKKEDALLYQSKGYNDDYYEESYFTTRTYGEPESAGPSRAVRQSVTSFPDADAFHHQVHDDDLLSSSEEECKDRERPMYGRDSAYQSITHYRPVSASRSSLDLSYYPTSSSTCFMSSSSSSSSWLTRRAIRPENRAPGAGLGQER
modifications: three D-amino acids at alternating positions within 195-199
B3: HA-tagged semi-synthetic EMD LCD 3xD_(199-203) (domain or fragment)
chain: RRLSPPSSSAASSYSFSDLNSTRGDADMYDLPKKEDALLYQSKGYNDDYYEESYFTTRTYGEPESAGPSRAVRQSVTSFPDADAFHHQVHDDDLLSSSEEECKDRERPMYGRDSAYQSITHYRPVSASRSSLDLSYYPTSSSTCFMSSSSSSSSWLTRRAIRPENRAPGAGLGQER
modifications: three D-amino acids at alternating positions within 199-203
B4: HA-tagged semi-synthetic EMD LCD 3xD_(203-207) (domain or fragment)
chain: RRLSPPSSSAASSYSFSDLNSTRGDADMYDLPKKEDALLYQSKGYNDDYYEESYFTTRTYGEPESAGPSRAVRQSVTSFPDADAFHHQVHDDDLLSSSEEECKDRERPMYGRDSAYQSITHYRPVSASRSSLDLSYYPTSSSTCFMSSSSSSSSWLTRRAIRPENRAPGAGLGQER
modifications: three D-amino acids at alternating positions within 203-207
B5: HA-tagged semi-synthetic EMD LCD 3xD_(207-211) (domain or fragment)
chain: RRLSPPSSSAASSYSFSDLNSTRGDADMYDLPKKEDALLYQSKGYNDDYYEESYFTTRTYGEPESAGPSRAVRQSVTSFPDADAFHHQVHDDDLLSSSEEECKDRERPMYGRDSAYQSITHYRPVSASRSSLDLSYYPTSSSTCFMSSSSSSSSWLTRRAIRPENRAPGAGLGQER
modifications: three D-amino acids at alternating positions within 207-211
B6: HA-tagged semi-synthetic EMD LCD 3xD_(211-215) (domain or fragment)
chain: RRLSPPSSSAASSYSFSDLNSTRGDADMYDLPKKEDALLYQSKGYNDDYYEESYFTTRTYGEPESAGPSRAVRQSVTSFPDADAFHHQVHDDDLLSSSEEECKDRERPMYGRDSAYQSITHYRPVSASRSSLDLSYYPTSSSTCFMSSSSSSSSWLTRRAIRPENRAPGAGLGQER
modifications: three D-amino acids at alternating positions within 211-215
B7: untagged semi-synthetic EMD LCD (residues 46-221), all L- wild-type (domain or fragment, UniProt P50402 46-221, looked up)
chain: RRLSPPSSSAASSYSFSDLNSTRGDADMYDLPKKEDALLYQSKGYNDDYYEESYFTTRTYGEPESAGPSRAVRQSVTSFPDADAFHHQVHDDDLLSSSEEECKDRERPMYGRDSAYQSITHYRPVSASRSSLDLSYYPTSSSTCFMSSSSSSSSWLTRRAIRPENRAPGAGLGQER
notes: Emerin (EMD) low-complexity domain, residues 46-221 (P1 46-188 recombinant, P2 189-221 synthetic); P2 made on Rink amide resin (C-terminal amide surmised); source: RP-HPLC purified
B8: untagged semi-synthetic EMD LCD 3xD_(191-195) (protein)
chain: RRLSPPSSSAASSYSFSDLNSTRGDADMYDLPKKEDALLYQSKGYNDDYYEESYFTTRTYGEPESAGPSRAVRQSVTSFPDADAFHHQVHDDDLLSSSEEECKDRERPMYGRDSAYQSITHYRPVSASRSSLDLSYYPTSSSTCFMSSSSSSSSWLTRRAIRPENRAPGAGLGQER
B9: untagged semi-synthetic EMD LCD 3xD_(195-199) (protein)
chain: RRLSPPSSSAASSYSFSDLNSTRGDADMYDLPKKEDALLYQSKGYNDDYYEESYFTTRTYGEPESAGPSRAVRQSVTSFPDADAFHHQVHDDDLLSSSEEECKDRERPMYGRDSAYQSITHYRPVSASRSSLDLSYYPTSSSTCFMSSSSSSSSWLTRRAIRPENRAPGAGLGQER
B10: untagged semi-synthetic EMD LCD 3xD_(199-203) (protein)
chain: RRLSPPSSSAASSYSFSDLNSTRGDADMYDLPKKEDALLYQSKGYNDDYYEESYFTTRTYGEPESAGPSRAVRQSVTSFPDADAFHHQVHDDDLLSSSEEECKDRERPMYGRDSAYQSITHYRPVSASRSSLDLSYYPTSSSTCFMSSSSSSSSWLTRRAIRPENRAPGAGLGQER
B11: untagged semi-synthetic EMD LCD 3xD_(203-207) (protein)
chain: RRLSPPSSSAASSYSFSDLNSTRGDADMYDLPKKEDALLYQSKGYNDDYYEESYFTTRTYGEPESAGPSRAVRQSVTSFPDADAFHHQVHDDDLLSSSEEECKDRERPMYGRDSAYQSITHYRPVSASRSSLDLSYYPTSSSTCFMSSSSSSSSWLTRRAIRPENRAPGAGLGQER
B12: synthetic NEFL head domain 5xD_(22-30) (protein)
chain: SSFSYEPYYSTSYKRRYVETPRVHISSVRCGYSTARSAYSSYSAPVSSSLSVRRSYSSSSGSLMPSLENLELS
B13: synthetic NEFL head domain 5xD_(33-41) (protein)
chain: SSFSYEPYYSTSYKRRYVETPRVHISSVRCGYSTARSAYSSYSAPVSSSLSVRRSYSSSSGSLMPSLENLELS
B14: synthetic NEFL head domain 5xD_(43-51) (protein)
chain: SSFSYEPYYSTSYKRRYVETPRVHISSVRCGYSTARSAYSSYSAPVSSSLSVRRSYSSSSGSLMPSLENLELS
B15: synthetic NEFL head domain 5xD_(53-63) (protein)
chain: SSFSYEPYYSTSYKRRYVETPRVHISSVRCGYSTARSAYSSYSAPVSSSLSVRRSYSSSSGSLMPSLENLELS
B16: synthetic NEFL head domain 5xD_(63-71) (protein)
chain: SSFSYEPYYSTSYKRRYVETPRVHISSVRCGYSTARSAYSSYSAPVSSSLSVRRSYSSSSGSLMPSLENLELS

molecular target: T1, wild-type glutathione S-transferase (GST)-EMD LCD fusion protein; experiment: GST pulldown, Western blot against HA, densitometry; conditions: HA-tagged 3xPro EMD LCD prey 50 nM; n=3; parent: est. 0.26; read off a plot

Row | Molecule | response [Fraction IP]
1 | HA-tagged EMD LCD, wild-type (recombinant) 3xPro 208-211 (insertion, not substitution: ...aa208(Pro)aa209(Pro)aa210(Pro)aa211...) | 0.21
2 | HA-tagged EMD LCD, wild-type (recombinant) 3xPro 178-181 (insertion, not substitution: ...aa178(Pro)aa179(Pro)aa180(Pro)aa181...) | 0.21
3 | HA-tagged EMD LCD, wild-type (recombinant) 3xPro 203-205 (label as printed; insertion of three prolines, not substitution) | 0.18

molecular target: T1, wild-type glutathione S-transferase (GST)-EMD LCD fusion protein; experiment: pull-down; wild-type GST-EMD LCD immobilized on glutathione resin, incubated with HA-tagged EMD LCD prey (50 nM), washed with binding buffer, eluted with GSH; Western blot against HA in eluent relative to input, densitometry (n=3); conditions: not given

Row | Molecule | fold reduction of pulldown relative to wild-type [fold]
4 | B1 | 8.8
5 | B2 | 7.9
6 | B3 | 6.2
7 | B4 | 3.6
8 | B5 | 1.8
9 | B6 | 1.7

Molecular target: the molecule itself
Experiment: turbidity (absorbance at 395 nm); untagged semi-synthetic EMD LCD 3xD ChIM library, 50 μM LCD (n=3)
Conditions: not given

Row | Molecule | binding result
10 | B7 | binds

molecular target: T1, wild-type glutathione S-transferase (GST)-EMD LCD fusion protein; experiment: pull-down; wild-type GST-EMD LCD immobilized on glutathione resin, incubated with HA-tagged EMD LCD prey (50 nM), washed with binding buffer, eluted with GSH; Western blot against HA in eluent relative to input, densitometry (n=3); conditions: not given; remark: another data set of the same source

Row | Molecule | fold reduction of pulldown relative to wild-type [fold]
11 | HA-tagged EMD LCD 3xPro_(198-201) (domain or fragment) | 3.4
12 | HA-tagged EMD LCD 3xPro_(193-196) (domain or fragment) | 5.9
13 | HA-tagged EMD LCD 3xPro_(183-186) (domain or fragment) | 2.2
14 | HA-tagged EMD LCD 3xPro_(188-191) (domain or fragment) | 5

molecular target: P50402; experiment: turbidity (absorbance at 395 nm); untagged semi-synthetic EMD LCD 3xD ChIM library, 50 μM LCD (n=3); conditions: other: turbidity (absorbance at 395 nm)

Row | Molecule | fold decrease in turbidity relative to wild-type
15 | B8 | 13.3-, 2.8-, and 2.1-fold decreases in turbidity
16 | B9 | 13.3-, 2.8-, and 2.1-fold decreases in turbidity
17 | B10 | 13.3-, 2.8-, and 2.1-fold decreases in turbidity
18 | B11 | displays a modest 1.4-fold decrease in turbidity

system: not listed separately; experiment: turbidity (absorbance at 395 nm); untagged recombinant EMD LCD 3xPro library, 60 μM LCD, transferred from denaturing to native Tris buffer (n=3); conditions: other: turbidity (absorbance at 395 nm)

Row | Molecule | fold decrease in turbidity relative to wild-type
19 | untagged EMD LCD 3xPro_(183-186) | modestly reduces turbidity by 2.8-fold relative to wild-type
20 | untagged EMD LCD 3xPro_(193-196) | reduce turbidity by 107.6-, 16.6-, 34.7-, and 14.3-fold, respectively
21 | untagged EMD LCD 3xPro_(203-206) | reduce turbidity by 107.6-, 16.6-, 34.7-, and 14.3-fold, respectively
22 | untagged EMD LCD 3xPro_(198-201) | reduce turbidity by 107.6-, 16.6-, 34.7-, and 14.3-fold, respectively
23 | untagged EMD LCD 3xPro_(188-191) | reduce turbidity by 107.6-, 16.6-, 34.7-, and 14.3-fold, respectively

molecular target: P07196; experiment: turbidity (absorbance at 395 nm); synthetic NEFL head domain 5xD ChIM library, 100 μM LCD (n=3); conditions: other: turbidity (absorbance at 395 nm)

Row | Molecule | fold decrease in turbidity relative to wild-type
24 | B12 | with 9.1-fold and 20-fold decreases in turbidity relative to wild-type, respectively
25 | B13 | with 9.1-fold and 20-fold decreases in turbidity relative to wild-type, respectively
26 | B14 | with 2.7-fold, 1.6-fold, and 1-fold relative decreases in turbidity, respectively
27 | B15 | with 2.7-fold, 1.6-fold, and 1-fold relative decreases in turbidity, respectively
28 | B16 | with 2.7-fold, 1.6-fold, and 1-fold relative decreases in turbidity, respectively
